Assay results as given in the DeepSol protein solubility set.

assay: soluble on expression in E. coli; label from the status in PepcDB or PDB records

Row | Sequence | soluble on expression in E. coli
1 | MAKTKDKSIFVSSVDSDSDIEEIIMPPKPPVEVIQLDDSDDECQDICKPIYNKKVHKDPIVRVSYRQRIPESYFPGISTSLINVQREHNNRSKYDTWGSNSCSEPRISISNIERLEKPSYHEARRVPVFERLERSREISNGRNNQNPIRFNHKFVPPINRQTPLFNNQQLLVNVPFNEHHPTFLEPRPFYRSNVNEYNAGGLNRGSFRKMGRLNMEIVRDNDDFEEHFLAPNFPAKSASIDRRVDDSLSSNSYLRSGMIMASSERLEDPRFSGRLPVFARQINNQEINNDNFYQNSICYNHNNYPSNLESRVSFPFEARHHDADGLNRGRYQVMEHVNMGIMRNSEDFEDYDITQTDQDNHFYNDKDSGKHHRHRHRSKNNKKHKKHYDRNESGNSSECREEDDYEISNPSEKRHERKKRQRSSHRKESACVDEDNYILDEDRFYQQESDEYHNSLEMEREYEHGMDVGVKKEHSYKCDDIARNARKRARLTDDDMARREELFKEWSYSKEIVDGVTQLFGGPPRESERHQKKQKELVFEADRTAMHALSIRSGALVKARLLEIHYATGCHLIFLEEVKRGGYTYVELKGDPEHIKNAQKMIDDMVIDEHYIHDGRESIVYFYNAPHELRNTRGFDLNCRSIEKYCGIIIEKMREVFGIGGYVSTAPLKLTGSVNSIHMARETMQSKTKRFLDEEKFKETVEHCTPISFYRKIIGRCGENLKTIEKVTRTAIVFKRSFDNNEACFSIRGRTDNIKQAIEKIEEITHENQPADDDPGIFQVRVPENMVARLIGRHGVEINRIRSESKAKCYLNAIRGNLDDKFMVCSGGVEEAAYAAYLTKVKIGIIDPKVIQFNSDDFNNLSKVKPMEDPRLVMLKKRYAERKECK | soluble
2 | MKGFCYRCGHEGELLDGLCKICYTHMNPLIEVDNEVHVEVCHMCGSYKRKLWQDPQKRETYEIMEEIAYFGVKDNLKKANKSIDVEIMPQEPRQLPGGKRSRVEIPTVVFAKGRLVGEDNDREEERHITVYLDMVQCPRCSRCMSNYYEGTLQVRAMNRFLNDKERIELDDFVRDEAGKRLNKDRMAFISKYIPQKEGLDYQMGSMGAIRNIASAIKAKYGGKSIETAKLVGVDKDTGKDMYRITVAVRIPEFKLGDILEHKEKIYVVSSLNESRVYMEPVELGDKIALVWNEIDKSAKLIKKGEDCETATVISITPDTITAMDDSNYEIYEYNNTIENVKEGNKIRIFKNEEINRILEIIELEHHHHHH | soluble
3 | GMWWYSSIKYSADKVLLDTTRMYYYFINRTPRMEIGRMIAVLSGSFEFSKQYNKEIQERETDDYEVPRLMKQIAGVNDKGKEQPLSQPYALKSRVLLHAYLSRLPLESQNDALEEDQSYIITRILRFVEEMVNCSQNLMNYSQHTKISIETFDNLLKLQPMFVQALWQKNSPLLQLPHITDYNLQHLRKKRVFSCHDLAVMDAETRRSVLRSLSNEEYRDVMVVLSMMPRLQIETKTVVEGEDDKHELTAGCVVTLKVTMRRSRLIDPQEAGLADQYKKYAEDGGDDELEASEAPEEAAATVEEEEVKKRKPWEKNKPKQKKKKAQGQGQKKFVKKNAPASPDTEKALKEE | not soluble
4 | MGSDKIHHHHHHAQDKPQEEGFVFTTVKENPITSIKNQNRSSTCWSFSSLGFLESELLRTGKGEYDLSEMFVVHHTMVDRAVNYVRYHGDSSFSPGGSFYDIMFCMKNYGLVPQDAMPGIMYGDSLPVHNELDATAGAYVNAIAKGNLKKLTPVWKKGLCAIYDTYLGQCPEKFTYKGKEYTPMTFAQSLGLNPDDYVSLTSYTHHPFYSQFAIEIQDNWRNGLSYNLPLDEFMAVMDNAVKNGYTFAWGSDVSEEGFTRDGIAVVPDAAKGAELTGSDMARWTGMTAADKRKELTSKPLPEMKITQEMRQTAFDNWETTDDHGMIIYGIAKDQNGKEYFMVKNSWGTNNKYKGTWYASKAFVAYKTMNILVHKDALPKDIAKKLGIK | not soluble
5 | MQEQAQQFIFKVTDKAVEEIKKVAQENNIENPILRIRVVPGGCSGFQYAMGFDDTVEEGDHVFEYDGVKVVIDPFSMPYVNGAELDYVVDFMGGGFTIRNPNATGSCGCGSSFSCGLEHHHHHH | soluble
6 | SNATGLGELKISDTICAQNAVEALPALSVDEPTVTMTFQVNTSPFAGKEGKFVTSRNILERLEKELVHNVALRVEQTDDPDKFRVSGRGELHLSILIENMRREGFELAVSRPEVIIKEEDGQLMEPFETVTIDVMEEHQGGIMENIGLRKGELKDMAPDGKGRVRMDFIMPSRGLIGFQTEFMTLTSGSGLLYHTFDHYGPHKGGNIGQRVNGVLIANAAGKALTNALFNLQERGRLFIGHGVEVYEGMVIGIHSRDNDLTVNALKGKQLTNVRASGTDDAQVLTPPIVMTLEQALEFIDDDELVEVTPESIRIRKKFLTESDRKRASRSAK | soluble
7 | MAHHHHHHMGGAHNEGVQDGGAQDATTLYDELYLLFDEYIVRNCKQPNTYESLFCKKEFVQFAKLHGTSVVVTSPKKEIKNKDEIIDELIYAFKLFAKYTSMCDFFSKNEEVDDINTIYLKFLLIPYILGVLCYETISMEIRSDRLKEAKLYFGEFINVVNVYKIAPVEDYLLDEGGEVNQAMNRRNIKVKRAKDEKKLQDFYDDMIKMNVKKGSSQNYNHLCFADHMEEEQIREIYLSLIKCKCLQTLNMMDLIDTEIEVLEMRNRQQVQDKQHQNGKPTQGTKDTHDGQPPHQNKHPKDGIKKPWLFTIKKNMPLADMTQMRNYYRDLVFTPAHNLPTISLEECAKIEMEYALKGEGMAPRSEEERRGNPKSGTIKGAAQNGTDDEEDYEKSSKEESEKELMDREWDDWKDMHQKGIGNKNRNVA | soluble
8 | MGRGSEFGIFAFTDSVFEITESVGRFELKVMRYSGARGTVIVPYWTENDTATESKDYEGARGELVFENNESEKFIDLFILEESSYEKDVSFKVHIGEPRLAPDDGLAAKIKEVEKKPVQDLTELDRILLLSKPRNGELTTAYVRIRESQEFKATVDKLVAKA | soluble
9 | ATRMAPVIMVPGSSASQNRFDSLITELGKETPKKHSVLKLTVQTDGTIKYSGSIAANDNEPFIVIGFANNRDGKANIDKQAVWLNTAFKALVKTYHFNHFYALGHSNGGLIWTLFLERYLKESPKVHIDRLMTIASPYNMESTSTTAKTSMFKELYRYRTGLPESLTVYSIAGTENYTSDGTVPYNSVNYGKYIFQDQVKHFTEITVTGANTAHSDLPQNKQIVSLIRQYLLAETMPDKVRQKNAQRVQN | soluble
10 | MGSDKIHHHHHHMDYNQTVLSHLQKFWKHHDIKGFTWTLGRIVEELPDFQVFQVIPNHEDEPWVYVSSGIGQFLGQEFFIISPFETPEHIETLAMLASASMHYPDQFQLGKTVNIGRPWVEQSSFRHFLISLPYPYGQELEYMDNVRFFWLLPITQTERLFLNTHSVEELETKFDEAGIDYLDINRASTVWQAG | not soluble
11 | GSHMSSLEKRLGKNEYFIITKSSPVRAILNDFAANYSIPVFISSSVNDDFSGEIKNEKPVKVLEKLSKLYHLTWYYDENILYIYKTNEISRSIITPTYLDIDSLLKYLSDTISVNKNSCNVRKITTFNSIEVRGVPECIKYITSLSESLDKEAQSK | soluble
12 | MRVDAIAKVTGRARYTDDYVMAGMCYAKYVRSPIAHGYAVSINDEQARSLPGVLAIFTWEDVPDIPFATAGHAWTLDENKRDTADRALLTRHVRHHGDAVAIVVARDELTAEKAAQLVSIEWQELPVITTPEAALAEDAAPIHNGGNLLKQSTMSTGNVQQTIDAADYQVQGHYQTPVIQHCHMESVTSLAWMEDDSRITIVSSTQIPHIVRRVVGQALDIPWSCVRVIKPFVGGGFGNKQDVLEEPMAAFLTSKLGGIPVKVSLSREECFLATRTRHAFTIDGQMGVNRDGTLKGYSLDVLSNTGAYASHGHSIASAGGNKVAYLYPRCAYAYSSKTCYTNLPSAGAMRGYGAPQVVFAVESMLDDAATALGIDPVEIRLRNAAREGDANPLTGKRIYSAGLPECLEKGRKIFEWEKRRAECQNQQGNLRRGVGVACFSYTSNTWPVGVEIAGARLLMNQDGTINVQSGATEIGQGADTVFSQMVAETVGVPVSDVRVISTQDTDVTPFDPGAFASRQSYVAAPALRSAALLLKEKIIAHAAVMLHQSAMNLTLIKGHIVLVERPEEPLMSLKDLAMDAFYHPERGGQLSAESSIKTTTNPPAFGCTFVDLTVDIALCKVTINRILNVHDSGHILNPLLAEGQVHGGMGMGIGWALFEEMIIDAKSGVVRNPNLLDYKMPTMPDLPQLESAFVEINEPQSAYGHKSLGEPPIIPVAAAIRNAVKMATGVAINTLPLTPKRLYEEFHLAGLI | soluble
13 | MSLNVFDATLKRLEYIFEEFDKVYFSFSGGKDSGLMVQLANLVAEKLDRNFDLLILNIEANYTATVDFIKKIEQLPRVKNIYHFCLPFFEDNNTSFFQPQWKMWDPSEKEKWIHSLPKNAITLENIDDGLKKYYSLSNGNPDRFLRYFQNWYKEQYPQSAISCGVGIRAQESLHRHSAVTKGENKYKNRCWINITLEGNILFYPLFDWKVGDIWAATFKCELEYNYIYEKMYKIGYKYRDMREGHHHHHH | soluble
14 | MSDNALSPQKNHRRLAETLVDRFAQRMRDGVLVRGEKLPSEIHIMEAEGVSRTVVRDALSRMQAAGLVETRHGVGTFVLDMPPPEGFSVGPATIASVADVLNLLEFRLSLEVEAAGLAAQRRSPEALLELKRAFDALLEGPQKSGTTINADFQFHLKIAKASGNAYLIDIMKHLGTKLIPRTRMNSAYTGQSDRSAYLAGINAEHRQIYNAIAEGNVDAARAAMYLHLNGSRMRLRRTQALYSD | not soluble
15 | MLEKHWSKSLVDSFESSKNKPSNLNGKKYILSMFPYPSGRLHIGHMRVYTISDATARYYRLNGYEVIHPIGWDSFGLPAENAARDKGVDPREWTINNIESMKQQLLKTKILFDWEKEISTCEPEFFRWTQWIFCKLFEYGLVKRTSSEVNWDPIDKTVLAAEQIDNDGKSWRSGAKAEKKKLSQWMIETPKYAKRLQEGLRKMSEQWGEVADIQANWIGKCDVYRFMLPVMKDGSNDEIIDLRIKDIFEISNAEFLVLKQSHSLADKDATQFPYKLPFQVLNGVTGRQIPVIVVEDTYQPDVTSFLNSRIGNFQKDKILVEKFAIAEPKHKRKLTKNDIQEMASFGGYGGYETSRTLTDWVVSRQRGWGTPIPMIQTKDGKRVAVQLNKLPVLGSDRGQEVDKERFGESGVFDTDTLDTFFDSAWYYLRYLDNKNKSELISKGAMKNMPVDVYVGGIEHAAVHMFFARFVAYFLKDINVIQTAEPFTDLIPQGIVRGKTFIEKETGKYLGSEDVQQSGDKLTLKNDSSVEVDAVYEKMSKSKNNGVDLAAILDSEGVDMTRLRLLEAAAPRAPINWGETDLKGIKKLLDRIAAINSQIVDARDNGKPIELKKEIDGSIKETYNFFVRNVGMCLEVLHLHNTALMRIQGFTNALKKVDPIYLAHSPEGQRAVKSLIIMLQVFCPHVASEMWSALANDGSLVSDQKWPEVDKDADIEFLLMIDGVSGGRPSLDRRIIEEMSMDQLWERATFYEHADILRMMKEDGMKLKNSSYISRKGFHVTLSCSLEGDKEENRKKIGKILDRIQAEKRKLEIGKKGGKRKKEKKIVNK | not soluble
16 | MGGGRMGQHVETLVIGAGPAGLTTAYTLAKAGRGVTVLEMDETYVGGISRTVDYKGFKFDIGGHRFFSKSQEIVDLWNEILPDDFIDRPRLSRIYYREKFYAYPLKAFEALANLGVWTAAKCMASFGWAKLTPIAAPTTFHQWVRNQFGEKLFSIFFKTYTEKVWGMSCDEISADWASQRIKGLDLGAAIIDGVKRSLGLRGKAAEGGPKTLIESFRYPRKGPGMMWEACADKVMALGGDVRMGRKVDGLHFDKIAKLWTVAVTCADGRKEIYTADNVVSSAPIRELMQSISPTPISVFHAGELMYRDFITVVLIGKPQKELPDNWIYIHDPSVKVGRVQNFRSWSPEMIPDGVSTCLGLEYFCFEGDGLWVTSDEELVAQAKREIGKIGLMAPADVYDACVVRQHKAYPVYDDAYAEHVKMIRLDLKMHFPGLHLVGRNGMHKYNNQDHAMMTGLLTAENIIAGETLHDVWEVNEDAEYGEAGVSGARQALRSERAVPTKVAALEHHHHHH | not soluble
